Values joined by “and” are separate entries in the source; they are usually repeats but may differ in a detail not shown here. Equal values may be shown once.
B1: SC6.21 (antibody, V domains shown)
VH: SDVQLQESGPGLVKPSQTLSLTCSVPDYSITSDYHWHWIRQFPGNKLEWMGYISSRGSTNYNPSLKNRISITHDTSENQFFLKLTSVTTEDSATYYCAGLSQLALDYWGQGTTLTVSS
VL: DIVMSQSPSSLAVSVGEKVTLSCKSSQSLLYSSTQNNYLAWYQQTPGQSPKLLIYWASTRESGVPDRFTGSGSGTDFTLTISSVKAEDLAVYYCQQYYSYPWTFGGGTKLEIK
B2: SC6.41 (antibody, V domains shown)
VH: EVQLQQSGAESVRSGASVKLSCTASGLNIKDYYMHWVNLRPEQGLEWIGWIDPENGDTEYAPEFQGKATMTADTSSNTAYLQLSSLTSEDTAVYYCNACNYGSAYGYWGQGTTLTVSS
VL: DIVLTQATPSVPVTPGESVSISCRSSKSLLHTKGDTYLYWFLQRPGQSPQLLIYRMSNLASGVPDRFSGSGSGTVFTLRISRVEAEDVGVYYCMQHLEYPFTFGSGTKLEIKR
B3: SC6.24 (antibody, V domains shown)
VH: QVQLQQSGPEVVRPGVSVKISCKGSGYTFTDYAVHWVKLSHAKSLEWIGVISTYNDYTYNNQDFKGKATMTVDKSSSTAYMELARLTSEDSAIYYCARGNSYFYALDYWGQGTSVTVSS
VL: DIVLTQSPASLAVSLGQRATISCRASESVDSYGKSFMHWYQQRPGQPPKLLIYRASNLESGIPARFSGSGSRTDFTLTINPVEADDVATYYCQQSNEDPWTFGGGTKLEIK
B4: SC6.23 (antibody, V domains shown)
VH: QVTLKESGPGILKPSQTLSLTCSFSGFSLSTSNMGVGWIRQPSGKGLEWLAHIWWDDDKYYNPSLKSQLTISKDTSRNQVFLKITSVDTEDTATYYCVRSNYGYAWFAYWGQGTLVTVSA
VL: DIKMTQSPSSMYASLGERVTITCKASQDIYPYLNWFQQKPGKSPKTLIYRTNRLLDGVPSRFSGSGSGQDYSLTISSLDYEDMGIYYCLQYDEFPLTFGAGTKLELK
B5: SC6.58 (antibody, V domains shown)
VH: EVKLLESGGGLVQPGGSLKLSCAASGFDFSRYWMSWVRQAPGKGLEWIGDLNPDSSAINYTPSLKDKFIISRDNAKNTLYLQMSKVRSEDTALYYCTLITTLVPYTMDFWGQGTSVTVSS
VL: ETTVTQSPASLSMAIGEKVTIRCITNTDIDDDMNWYQQKPGEPPKLLISEGNGLRPGVPSRFSSSGYGTDFVFTIENMLSEDVADYYCLQSDNLPLTFGSGTKLEIK
B6: SC6.2.35 (antibody, V domains shown)
VH: QVQMQQSGAELMKPGASVKLSCKATGYTFTGYWIEWVKQRPGHGLEWIGEILPGSGRSNSNEKFKGKATFTADTSSNTAYMQLSSLTTEDSAIYYCARGKLSWGQGTLVTVSA
VL: DIVLTQSPASLAVSLGQRATISCRASESVDSFGNSFMHWYQQKPGQPPKLLIYAASNLGSGVPARFSGSGSGTDFSLNIHPVEEDDSAMYFCQQSKEVPRTFGGGSRLEIKR

How the values were obtained:
[1] = biological target: human PTK7 on non-engineered cells (human), Q13308; assay: cell-based or functional assay
[2] = biological target: human PTK7 on non-engineered cells (human) (UniProt Q13308); assay: cell-based or functional assay

| Binder | EC50, saporin (Fab-ZAP) cell killing, G401 Cells [1] | EC50, saporin (Fab-ZAP) cell killing, HEK293T Cells [1] | EC50, saporin (Fab-ZAP) cell killing, G401 Cells [2] | EC50, saporin (Fab-ZAP) cell killing, HEK293T Cells [2] | elimination of BR13 and BR64 breast NTX tumor cells, antibody at 0.2 nM with Fab-ZAP [2] |
| --- | --- | --- | --- | --- | --- |
| B1 | 200 pM | – | – | – | – |
| B2 | 2.6 pM | 5.7 pM | – | – | – |
| B3 | 6.7 pM | 11 pM | – | – | – |
| B4 | 2.6 pM | 3 pM | – | – | – |
| B5 | 35.1 pM | 86.8 pM | – | – | – |
| B6 | – | – | 1.1 pM | 0.45 pM | 70% and 80% |

Reference: patent US20180162952A1
